The results in this text go back to the supplement of paper PMC10724198.

± gives the standard deviation of the averaged measurements.
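Note: PSI is a weighted mean of sequencing reads over stability bins, variants kept only with over 10 reads, mCherry proximal and sfGFP distal, peptide attached via GGGS linker.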

The subject of this series is Saccharomyces cerevisiae. The series can be described thus: protein stability index of tFT-peptide fusion (C-terminal peptide) (PSI (0-1 scale)); higher = more stable (slower turnover). The conditions noted are these: genetic background: wild type; temperature: 30 C.
NNSRTNDVRRRK yielded a protein stability index of 0.726 ± 0.018.
For NPCPSVLCSNCD, the protein stability index worked out at 0.67 ± 0.064.
Next, NPLRTQASTTAQ: 0.72 ± 0.096.
Next, NQHKKGQKKKGI: 0.684 ± 0.042.
Next, NRGGRKAINENG: 0.685 ± 0.036; NRGKDEIMKRDK: 0.671 ± 0.066.
Consider NRKKIKSIDVRK, for which the protein stability index worked out at 0.67 ± 0.07.
Then NRRCAPVHPGPD, with 0.7217 ± 0.0036.
Then NSFTYWYGGCIL, with 0.802 ± 0.28.
Next, NSSPVRSSCLSA: 0.6881 ± 0.0038; NSTERDNGIRKE: 0.6686 ± 0.0065; NTKNPRPQDPQQ: 0.651 ± 0.013.
In turn, NTTFISRRLPPR registered a protein stability index of 0.687 ± 0.0089.
Next, NVNNNICTYRAI: 0.6776 ± 0.0046.
Then NVVFGCFFPVLT, with 0.684 ± 0.04; and NYNGVRRYNGFK, with 0.574 ± 0.052.
Next, PAACPTRTCLYP: 0.719 ± 0.045; PALPPPAPLPLS: 0.67261 ± 0.00022.
PALPPPPLLSSS returned a protein stability index of 0.705 ± 0.012.
PALPPPPSPPLL registered a protein stability index of 0.754 ± 0.052.
Next, PALQHTVPPPPQ: 0.579 ± 0.012; PANGKQNRGKRR: 0.645 ± 0.078; PAPCAPLLTHRP: 0.6614 ± 0.0025.
PAPCPSPPAPAV came in with a protein stability index of 0.708 ± 0.029.
Next, PAPLFFCAPFFF: 0.715 ± 0.034.
Next, PAPLSIPSTLTT: 0.609 ± 0.053; PAPPLPLAPPPL: 0.771 ± 0.025.
Next, PAPPSHLLLPLL: 0.768 ± 0.067; PAPPSPPPHSSP: 0.751 ± 0.063.
As to PAPRPAPPSLPP, the protein stability index came to 0.709 ± 0.015.
In the case of PAPSPPPPRPLP, the protein stability index is 0.716 ± 0.1.
Then PARRPPPTPSSS, with 0.631 ± 0.064.
Then PASPPLRALSSL, with 0.81 ± 0.075; and PASQPPTPPPRS, with 0.675 ± 0.11; and PASSTLRPPAHP, with 0.723 ± 0.18.
Next, PAVHLYFIPPTG: 0.644 ± 0.038.
In turn, PAVSRPPLPSVH had a protein stability index of 0.7 ± 0.089.
Next, PCAPHPPPWVVL: 0.6058 ± 0.0056; PCDWEGCVAMNV: 0.649 ± 0.055; PCFSCPPLFLRT: 0.631 ± 0.067.
Then PCGTPHVRPLAT, with 0.719 ± 0.025.
Next, PCLPCVDRGMRG: 0.6663 ± 0.00079.
As to PCLTCKARSIWL, the protein stability index was 0.672 ± 0.033.
Next, PCPAPPPASSSP: 0.728 ± 0.16; PCPLPVLDASQF: 0.7158 ± 0.0053.
Then PCSRVICASEFT, with 0.701 ± 0.045.
Next, PDAGTSSLQTLT: 0.722 ± 0.036; PDCPCVAVCSDI: 0.728 ± 0.032; PDCQSIIRLTTG: 0.752 ± 0.098.
Turning to PDCVRVSGLGLS, the protein stability index amounted to 0.665 ± 0.045.
As for PDHPTLPRRNPL, the protein stability index worked out at 0.743 ± 0.039.
Next, PDPPPTRPFPAP: 0.672 ± 0.045; PDPPTQPTRRSR: 0.686 ± 0.029.
Next, PDPTLPTPSRPP: 0.642 ± 0.024.
Turning to PDYPYQDQLARL, the protein stability index stood at 0.784 ± 0.058.
PEEPSANWTGFF had a protein stability index of 0.598 ± 0.033.
Then PEESSSEGSVKR, with 0.67927 ± 0.00039; and PEGQRNRDAQSA, with 0.7125 ± 0.0026.
Next, PEIKKNRTVSIV: 0.664 ± 0.011.
Consider PEMELEKRNQHN, for which the protein stability index was 0.716 ± 0.015.
Next, PENKSLITSPRV: 0.628 ± 0.098; PESPGSPEIRHR: 0.75 ± 0.053; PFALPPPPPLVP: 0.69 ± 0.0078.
Next, PFCCALPSPPSP: 0.6145 ± 0.0055; PFCGSPARTTAV: 0.642 ± 0.052; PFCKTDHMSMTV: 0.682 ± 0.039.
Next, PFFHFLGFSYFC: 0.684 ± 0.024; PFFLAFPPSPPT: 0.723 ± 0.029; PFFPSQFFLFFS: 0.6477 ± 0.0048.
For the sequence PFFSPLPPSPPP, the protein stability index came out at 0.767 ± 0.11.
Then PFGRETCLTSVP, with 0.648 ± 0.03; and PFHCLPRPPCYW, with 0.708 ± 0.14; and PFHPSPLPAPHF, with 0.638 ± 0.036.
In the case of PFLAWTILPLTY, the protein stability index was 0.701 ± 0.0074.
Next, PFLLVSHESSLE: 0.718 ± 0.0077; PFPPPSTPASLY: 0.772 ± 0.11; PFPRPAFPPYFP: 0.746 ± 0.047.
Then PFPRPALPAYQS, with 0.705 ± 0.018; and PFPSLCFPPLNG, with 0.727 ± 0.055.
Then PFPSPPAPPPLP, with 0.672 ± 0.048.
PFRPPPPPSSPP returned a protein stability index of 0.735 ± 0.037.
Then PFSFSSLSASVF, with 0.7033 ± 0.0025; and PFSRIFSPLSLL, with 0.68 ± 0.045; and PFSSVATFLSRL, with 0.854 ± 0.17.
Next, PFVLVSDAHLIT: 0.66 ± 0.035; PFYVEAVEKPEH: 0.855 ± 0.035; PGAGGLSLVVRR: 0.654 ± 0.053.
In turn, PGAVNRASDGEV showed a protein stability index of 0.6061 ± 0.005.
PGCGRKSAFGLT came in with a protein stability index of 0.699 ± 0.037.
Sequence PGCPRDRLLLQL registered a protein stability index of 0.67 ± 0.025.
With PGCSFSYYFFAV, the protein stability index came out at 0.5725 ± 0.0016.
For PGDVSFALARNG, the protein stability index came to 0.624 ± 0.074.
Next, PGGRPAAGALRV: 0.685 ± 0.065; PGLCGGRRCVAL: 0.638 ± 0.073.
PGLNHLTPMLPP: the protein stability index amounted to 0.635 ± 0.038.
Next, PGLPGHLPPLPL: 0.62033 ± 0.00011; PGLRSQQLIAPI: 0.652 ± 0.069.
Then PGPCLLFPPFPP, with 0.643 ± 0.012; and PGPPADLAPPPP, with 0.753 ± 0.018.
In turn, PGPPYPPPPLHP registered a protein stability index of 0.716 ± 0.008.
With PGRLPPPFASFF, the protein stability index amounted to 0.687 ± 0.0091.
For the sequence PGSKLGPAASRG, the protein stability index was 0.663 ± 0.071.
Next, PGSPPGLERLGR: 0.694 ± 0.059; PGSPPPPDTLSP: 0.701 ± 0.034; PGTLPDDLASTR: 0.673 ± 0.034.
Then PGVGRLGRTPVS, with 0.6959 ± 0.0054; and PHHLLTAHPPPA, with 0.668 ± 0.035.
Next, PHLAAPAPALQD: 0.613 ± 0.056; PHLPPLLTTTPS: 0.61 ± 0.023.
PHLPPQPPSPPA displayed a protein stability index of 0.716 ± 0.045.
Next, PHLRPPPPPPPQ: 0.6892 ± 0.0049.
Then PHLSRSVSKVLR, with 0.659 ± 0.066.
Then PHPLPLPLPLSP, with 0.7134 ± 0.0017; and PHPPPPPPPHSP, with 0.715 ± 0.08.
PHPPPTAPGPSP: the protein stability index was 0.67 ± 0.00026.
In turn, PHPRFYPSTPPP displayed a protein stability index of 0.64827 ± 7.8e-06.
